This is an account of results in patent US6600012.

The assay has as its target HLA.A2 on T2 mutant cells. The assay can be described thus: T2 cell HLA.A2 upregulation assay, flow cytometry with MA2.1. Background: A flow cytometer gives signals particle by particle.

In turn, FLPSDYFPSV (modifications not checked) […, positive control peptide] displayed a % Change in mean channel intensity of 428%.
